Data on one substance can be found in publication PMC11203719, “Mts1 (S100A4) and Its Peptide Demonstrate Cytotoxic Activity in Complex with Tag7 (PGLYRP1) Peptide” (International Journal of Molecular Sciences, 2024).

For this assay, the target named is Mts1 (S100A4) protein, recombinant human (human) (UniProt P26447). The experiment in a line: MST; Mts1 labelled with Alexa Fluor 633 (200 nM), preincubated 20 min in the dark at room temperature with 16 concentrations of Tag7 or peptide; Monolith NT.115, 10% IR laser power; apparent Kd.
Chain of Mts1 (S100A4) protein, recombinant human (human) (P26447 whole entry): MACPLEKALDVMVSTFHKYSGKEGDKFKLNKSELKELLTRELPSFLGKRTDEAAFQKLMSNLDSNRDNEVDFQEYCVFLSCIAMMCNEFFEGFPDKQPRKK

For “Tag7 (PGLYRP1) protein, recombinant (from UniProt O88593 19-182) (natural protein)”, the Kd was 9.21 µM.
